Laboratory results taken from patent US20210246195A1 (CZ BIOHUB SF, published 2021).

What was measured:
BSA [1] = target: T1, BSA (UniProt P02769 25-607); assay: indirect ELISA, OD heat map
T1 construct: also called bovine serum albumin; immobilized BSA

[2] = target: T2, Ara h 3 (purified natural peanut allergen) (Arachis hypogaea); assay: BLI, antibody on anti-human IgG Fc sensors, Ara h 3 as analyte, top 32 nM
T2 construct: mature; bought natural protein; also called natural Ara h 3; NA-AH3-1

[3] = target: T3, purified recombinant allergen Aspergillus fumigatus 1 (rAsp f 1) (Aspergillus fumigatus, UniProt P67875 28-176); assay: indirect ELISA, OD heat map
T3 sequence: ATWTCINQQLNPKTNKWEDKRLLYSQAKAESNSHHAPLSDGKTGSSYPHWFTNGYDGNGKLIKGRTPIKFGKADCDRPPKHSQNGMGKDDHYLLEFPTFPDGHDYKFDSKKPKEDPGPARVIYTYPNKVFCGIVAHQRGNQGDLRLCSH

BSA [4] = target: T1, BSA; assay: indirect ELISA, OD heat map; remark: listed apart in the source
BSA [5] = target: T1, BSA; assay: indirect ELISA heat map, hIgG subtracted
[6] = target: T2, Ara h 3 (purified natural peanut …); assay: BLI, antibody on anti-human IgG Fc sensors, Ara h 3 as analyte, top 16 nM
[7] = target: T4, Ara h 1 (purified natural peanut allergen) (Arachis hypogaea, UniProt P43238 26-626); assay: indirect ELISA, OD heat map
T4 construct: mature; bought natural protein; also called natural Ara h 1; NA-AH1-1
T4 sequence (looked up): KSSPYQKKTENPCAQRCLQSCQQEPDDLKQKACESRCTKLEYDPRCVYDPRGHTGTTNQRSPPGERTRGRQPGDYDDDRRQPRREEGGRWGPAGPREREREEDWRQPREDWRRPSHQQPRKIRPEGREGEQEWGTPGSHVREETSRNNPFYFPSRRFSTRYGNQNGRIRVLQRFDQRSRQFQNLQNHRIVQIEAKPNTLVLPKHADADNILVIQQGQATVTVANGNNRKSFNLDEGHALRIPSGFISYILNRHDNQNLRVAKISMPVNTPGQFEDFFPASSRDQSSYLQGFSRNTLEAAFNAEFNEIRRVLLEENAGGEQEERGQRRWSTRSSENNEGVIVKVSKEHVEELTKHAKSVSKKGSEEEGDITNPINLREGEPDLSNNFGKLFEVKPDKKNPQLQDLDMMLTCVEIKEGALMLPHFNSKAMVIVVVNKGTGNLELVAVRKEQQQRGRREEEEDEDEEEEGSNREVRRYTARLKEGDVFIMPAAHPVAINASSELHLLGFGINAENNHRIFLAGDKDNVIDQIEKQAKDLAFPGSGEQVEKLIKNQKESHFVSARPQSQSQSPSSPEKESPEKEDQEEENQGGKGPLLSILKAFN

[8] = target: T2, Ara h 3 (purified natural peanut …); assay: BLI, antibody on anti-human IgG Fc sensors, Ara h 3 as analyte, top 32 nM; remark: listed apart in the source

T1 sequence (P02769 25-607 limits assumed): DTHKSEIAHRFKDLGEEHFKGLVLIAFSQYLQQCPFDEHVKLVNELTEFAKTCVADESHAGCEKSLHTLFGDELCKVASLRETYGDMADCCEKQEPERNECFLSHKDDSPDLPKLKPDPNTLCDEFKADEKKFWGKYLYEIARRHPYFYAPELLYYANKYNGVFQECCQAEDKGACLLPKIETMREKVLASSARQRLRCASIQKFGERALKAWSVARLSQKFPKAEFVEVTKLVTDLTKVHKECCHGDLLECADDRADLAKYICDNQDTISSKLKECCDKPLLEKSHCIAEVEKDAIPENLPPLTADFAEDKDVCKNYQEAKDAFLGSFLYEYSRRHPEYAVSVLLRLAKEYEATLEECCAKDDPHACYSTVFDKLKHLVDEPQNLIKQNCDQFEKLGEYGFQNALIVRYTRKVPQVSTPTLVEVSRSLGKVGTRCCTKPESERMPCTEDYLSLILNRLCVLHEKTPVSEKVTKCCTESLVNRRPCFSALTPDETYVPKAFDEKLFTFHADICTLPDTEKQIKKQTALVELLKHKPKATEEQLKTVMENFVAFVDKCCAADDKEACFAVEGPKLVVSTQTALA
T2 sequence (main, as listed by the source): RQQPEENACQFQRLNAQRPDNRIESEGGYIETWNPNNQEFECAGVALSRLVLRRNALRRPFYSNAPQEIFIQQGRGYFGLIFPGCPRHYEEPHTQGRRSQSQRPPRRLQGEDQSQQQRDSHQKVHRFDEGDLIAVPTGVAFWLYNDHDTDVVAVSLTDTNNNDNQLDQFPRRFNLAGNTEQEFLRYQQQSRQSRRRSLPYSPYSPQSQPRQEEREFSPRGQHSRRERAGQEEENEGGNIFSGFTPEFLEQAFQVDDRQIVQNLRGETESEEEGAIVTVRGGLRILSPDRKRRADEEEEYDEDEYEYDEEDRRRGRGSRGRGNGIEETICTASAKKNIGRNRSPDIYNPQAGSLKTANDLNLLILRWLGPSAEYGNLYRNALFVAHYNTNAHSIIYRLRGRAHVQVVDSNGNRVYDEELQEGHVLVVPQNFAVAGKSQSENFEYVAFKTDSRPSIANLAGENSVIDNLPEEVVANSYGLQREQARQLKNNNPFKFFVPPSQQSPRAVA

B1: PA12P3D08 (antibody, human IgG1, V domains shown)
VH: QVQLVESGGGVVQPGKSLRLSCAASAFTFRRFAMHWVRQAPGKGLEWVAVISDNGLREDYEDSVKGRFTISRDNSQNTLYLQMNGLRAEDTAVYYCAKVLDYNEYSLYFGMDVWGQGTTVTVSS
VL: EVVLTQSPATLSLSPGERATLSCRTSQAISNNFLAWYQQRPGQPPRLLIYASSRRATDTPDRFTGSGSGTDFTLTITRLEPEDFAVYFCQYYSDSPPYTFGPGTKLEIK
notes: human IgG1, kappa
B1 was tested, and the binding result (BSA [1]) was “no binding (tested: 2 ng/µL)” and the Kd [2] was 22 nM.

B2: PA12P1C07 (antibody, human IgG1, V domains shown)
VH: QVQLEESGGGVVQPGKSLRLSCVASAFTFKRFAMHWVRQAPGKGLEWVAVISDNGLREDYEDSVKGRFTISRDNSKDTLYLQMNSLRPEDTAIYYCAKVLDYSEYSLYFGMDVWGQGTTVLVSS
VL: EIVLTQSPAILSLSPGDRATLSCRTSQTVNSNFLAWYQQKPGQAPRLLIYGASRRAIDIPDRFTGSGSGTEFTLTIARLEPEDFAVYSCQHYSDSPPYTFGQGTKLEIK
notes: human IgG1, kappa
In the case of B2, the binding result (BSA [1]) is reported as “no binding (tested: 2 ng/µL)” and the Kd [2] is reported as 11 nM.

B3: 1003320105_D6 (antibody, V domains shown)
VH: EVQLLESGGGLVQPGGSLRLSCAASGFNFSNFAVSWVRQTPGKGLEWVSAILGSRSVTYYADSVKGRFTISRDKSKNALYLQMDSLRAEDTAIYYCAKLFFMPYSHDDSGDYWGQGTLVAVSS
VL: QLVLTQSPSASASLGASVKLTCTLSSDHRSYAIAWHQQQPGKGPRYLMKVNRDGSHIKGDGIPHRFSGSSSVTERYLIISSLQSEDEADYYCQSWDTGIQVFGGGTRLTVV
notes: also called Clone 1003320105_D6
B3: no binding (tested: 2 ng/µL) [3]; no binding (tested: 2 ng/µL) (BSA [4]).

B4: PA13P3G09 (antibody, human IgG1, V domains shown)
VH: QEQLVESGGGVVHPGGSLRLSCVASAFTFNRFGMHWVRQAPGKGLEWVAVISNDGRSQDYADSVKGRFIISRDNSKNTLYLQLNSLRFEDTAVYYCAKVLDYSIFYYYFGLDVWGQGTTVTVSS
VL: EVVLTQSPGSLSLSPGERATLSCRAGQSLSSKFLAWYQHKPGQAPRLLIYGASTRATGVPDRFSGSGSGTDFSLIISRVEPEDFAVYYCQHYGDSPPYTFGQGTKVEMK
notes: human IgG1, kappa
For B4, the binding result (BSA [1]) was “no binding (tested: 2 ng/µL)” and the Kd [2] was 19 nM.

B5: 1003320101_D6 (antibody, V domains shown)
VH: EVQLVASGGGLIHPGGSLRLSCEASGFSFSRFWMYWVRQSPGEGLVWVARLSGDGTVTNYADSMEGRVTISRDNVKNTLFLEMNSLREGDTGIYYCARKDCPSLSCQLDYWGQGVQVTVSS
VL: QSVLTQPPSVSAAPGQKVTISCSGSTSNIGKNYVSWYQHFPGAAPKLLIFDNDKRPSGIPDRFSGSRSGTSATLDITGLQTGDEADYFCATWDSRLSADVFGSGTTVSVL
notes: also called Clone 1003320101_D6
B5: no binding (tested: 2 ng/µL) [3]; no binding (tested: 2 ng/µL) (BSA [4]).

B6: PA12P3F10 (antibody, human IgG1, V domains shown)
VH: QVQLVESGGGVVQPGGSLTLSCVGSGFTFSHYAIHWVRQAPGKGLEWVAVISNVGTTRDYADSLKGRLTISRENSQSTVFLQMNSLRADDTAIYYCAKVLDYSEFHYYYGLDVWGQGTAVAVSS
VL: EIVLTQSPGTLSLSPGQRVTLSCRVSQAIPTMYVAWYQQRPGQAPRLLIYGTSSRATGIPDRFSGGGSGTDFTLTINRLEPEDIAVYYCQHYSNSPPYTFGPGTKLEIK
notes: human IgG1, kappa
For B6, the binding result (BSA [1]) was “no binding (tested: 2 ng/µL)” and the Kd [2] was 11 nM.

B7: PA13P1E10 (antibody, human IgG1, V domains shown)
VH: QVQLVDSGGGVVQPGKSLRLSCVGSGFTFRTFGIHWVRQAPGKGLEWVAVISNDGGNSASADSVKGRFTTSRDNSKNTVYLQINSLRPEDTAIYYCAKVLDYSAFSYYYGMDVWGQGTTVIVSS
VL: EIVLTQSPGTLSLSPGERGTLSCRTSQPISRAHLAWYQHKAGQAPRLLIYGSTERAAGIPERFSGGGSGSDFTLTISSLEAEDFAVYYCQHYGRSPPYTFGQGTKVEIK
notes: human IgG1, kappa
With B7 the binding result (BSA [1]) was “no binding (tested: 2 ng/µL)” and the Kd [2] was 5 nM.

B8: PA13P1H03 (antibody, human IgG1, V domains shown)
VH: EVQLVESGGGLVQPGGSLRLSCAASGFTFRNYWMNWVRQAPGKGLVWVSRINSEGSSTSYADPVKGRFTISRDNAKDTLYLQMDSLRAEDSAVYYCARIFNGYIHVGRDYWGQGTRVTVSS
VL: DIQMTQSPSTLSASIGDRVTITCRASESISNWLAWFQQKPGKAPKLLIYKASNLESGVPSRFSGSGSGTEFTLTISSLQPDDFATYYCQQYNSNSQTFGQGTKLDLK
notes: human IgG1
B8: no binding (tested: 2 ng/µL) (BSA [5]).

B9: 1003320107_F8 (antibody, V domains shown)
VH: EVQLVESGGGLVQPGGSLKLSCAASGFTFSGSTIHWVRQTSGKGLEWVGRIGSKATSYATAYAASVKGRFTISRDDSKNTAYLQMNSLKTEDTAVYFCTRRYYDTTKSVLVVSDSWGQGTLVTVSS
VL: SYELTQPPSMSVSPGQTARITCSGDVLAKQFAYWYQQKPGQAPVLVIYKDSERPSGIPERFSGSSSGTIITLTISGVQAEDEADYYCQSADSSGTSWVFGGGTKLTVL
notes: also called Clone 1003320107_F8
B9: no binding (tested: 2 ng/µL) [3]; no binding (tested: 2 ng/µL) (BSA [4]).

B10: PA13P1H08 variant rCDR1-N (antibody, human IgG1, V domains shown)
VH: QVQLVNSGGGVVQPGRSLRLSCVASGFTFSSYGIHWVRQAPGKGLEWVAVISNDGEKSESADSVKGRFTPSRDNSKNTVYLQMNNLRVEDTAVYYCAKVLDYSRYSYYYGMDVWGQGTTVIVSS
VL: EIVLTQSPGTLSLSPGGRGTLSCRTSQTINNAHLAWYQHKPGQAPRLLIYGSSERATGVPDRFSGSGSGSDFTLTISSLEAEDFAVYYCQHYGRSPPYTFGPGTKLDIK
notes: human IgG1, kappa; also called heavy chain CDR1 reverted
With B10 the binding result (BSA [1]) was “no binding (tested: 2 ng/µL)” and the Kd [6] was 0.5 nM.

B11: PA13P1H08 variant with native heavy chain and light chain swapped with another kappa light chain (antibody, human IgG1, V domains shown)
VH: QVQLVNSGGGVVQPGRSLRLSCVASGFTFSTFGIHWVRQAPGKGLEWVAVISNDGEKSESADSVKGRFTPSRDNSKNTVYLQMNNLRVEDTAVYYCAKVLDYSRYSYYYGMDVWGQGTTVIVSS
VL: EIVLTQSPATLSLSPGERATLSCRASQSVSSYLAWYQQKPGQAPRLLIYDASNRATGIPARFSGSGSGTDFTLTISSLEPEDFAVYYCQQRSNWPPGFTFGPGTKVDIK
notes: human IgG1, kappa
B11: no binding (tested: 2 ng/µL) [7]; no binding (tested: 2 ng/µL) (BSA [1]).

B12: PA13P1H08 variant R-N (antibody, human IgG1, V domains shown)
VH: QVQLVESGGGVVQPGRSLRLSCAASGFTFSSYGMHWVRQAPGKGLEWVAVISYDGSNKYYADSVKGRFTISRDNSKNTLYLQMNSLRAEDTAVYYCAKVLDYSNYYYYYGMDVWGQGTTVTVSS
VL: EIVLTQSPGTLSLSPGGRGTLSCRTSQTINNAHLAWYQHKPGQAPRLLIYGSSERATGVPDRFSGSGSGSDFTLTISSLEAEDFAVYYCQHYGRSPPYTFGPGTKLDIK
notes: human IgG1, kappa; also called reverted heavy chain, native light chain
For B12, the binding result (BSA [1]) was “no binding (tested: 2 ng/µL)” and the Kd [8] was 0.89 nM.

B13: PA13P1H08 variant rCDR3-N (antibody, human IgG1, V domains shown)
VH: QVQLVNSGGGVVQPGRSLRLSCVASGFTFSTFGIHWVRQAPGKGLEWVAVISNDGEKSESADSVKGRFTPSRDNSKNTVYLQMNNLRVEDTAVYYCAKVLDYSNYYYYYGMDVWGQGTTVIVSS
VL: EIVLTQSPGTLSLSPGGRGTLSCRTSQTINNAHLAWYQHKPGQAPRLLIYGSSERATGVPDRFSGSGSGSDFTLTISSLEAEDFAVYYCQHYGRSPPYTFGPGTKLDIK
notes: human IgG1, kappa; also called heavy chain CDR3 reverted
B13 was tested, and the binding result (BSA [1]) was “no binding (tested: 2 ng/µL)” and the Kd [6] was 0.29 nM.

B14: PA13P1H08 variant rFWRs-N (antibody, human IgG1, V domains shown)
VH: QVQLVESGGGVVQPGRSLRLSCAASGFTFSTFGMHWVRQAPGKGLEWVAVISNDGEKSYYADSVKGRFTISRDNSKNTLYLQMNSLRAEDTAVYYCAKVLDYSRYSYYYGMDVWGQGTTVTVSS
VL: EIVLTQSPGTLSLSPGGRGTLSCRTSQTINNAHLAWYQHKPGQAPRLLIYGSSERATGVPDRFSGSGSGSDFTLTISSLEAEDFAVYYCQHYGRSPPYTFGPGTKLDIK
notes: human IgG1, kappa; also called heavy chain framework regions reverted
For B14, the binding result (BSA [1]) was “no binding (tested: 2 ng/µL)” and the Kd [8] was 3.2 nM.

B15: PA13P1H08 variant rCDR2-N (antibody, human IgG1, V domains shown)
VH: QVQLVNSGGGVVQPGRSLRLSCVASGFTFSTFGIHWVRQAPGKGLEWVAVISYDGSNKESADSVKGRFTPSRDNSKNTVYLQMNNLRVEDTAVYYCAKVLDYSRYSYYYGMDVWGQGTTVIVSS
VL: EIVLTQSPGTLSLSPGGRGTLSCRTSQTINNAHLAWYQHKPGQAPRLLIYGSSERATGVPDRFSGSGSGSDFTLTISSLEAEDFAVYYCQHYGRSPPYTFGPGTKLDIK
notes: human IgG1, kappa; also called heavy chain CDR2 reverted
In the case of B15, the binding result (BSA [1]) is reported as “no binding (tested: 2 ng/µL)” and the Kd [6] is reported as 0.0042 nM.
